Results from patent US20030084466A1, “System and method for controlling male fertility” (priority 2000, published 2003).

System: Akt
Assay: SCF-induced Akt activation (Akt in vitro kinase assay, histone H2B substrate) in primary bone marrow-derived mast cells
Type: cell-based, mouse

B1: SCF: murine stem cell factor (R & D Systems, Inc.), bivalent ligand of the Kit receptor (protein)
chain: KEICGNPVTDNVKDITKLVANLPNDYMITLNYVAGMDVLPSHCWLRDMVIQLSLSLTTLLDKFSNISEGLSNYSIIDKLGKIVDDLVLCMEENAPKNIKESPKRPETRSFTPEEFFSIFNRSIDAFKDFMVASDTSDCVLSSTLGPEKDSRVSVTKPFMLPPVA
With B1 the Akt activation (+/+ and loxP/loxP mast cells, 100 ng/ml murine SCF, 8 minutes, 37° C.) was 5 fold and the “Akt activation relative to wild type levels” value (Y719F/Y719F mast cells, SCF stimulation) was 12%.
